What follows are sequences tested on Escherichia coli TOP10 (assay: shrunken log2 fold change of peptide-encoding DNA abundance (4.5 h post-induction vs induction); higher = less antimicrobial activity (less host growth inhibition)). Conditions: time post-induction: 4.5 h; library: site-saturation at positions 5, 18, 19, 20.
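Also: peptides expressed intracellularly from a pBAD plasmid library in pooled LB shake-flask culture, induced with 0.3% L-arabinose, DNA abundance read by NGS, three biological replicates, DESeq2 with apeglm shrinkage.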

| Sequence | shrunken log2 fold change |
| --- | --- |
| RRIRPRPPRLPRPRPRPCAIPRP | -1.01 |
| RRIRPRPPRLPRPRPRPCALPRP | -0.0401 |
| RRIRPRPPRLPRPRPRPCCVPRP | 0.182 |
| RRIRPRPPRLPRPRPRPCEMPRP | 2.11 |
| RRIRPRPPRLPRPRPRPCFEPRP | 0.0232 |
| RRIRPRPPRLPRPRPRPCHVPRP | -0.0695 |
| RRIRPRPPRLPRPRPRPCHWPRP | 0.0406 |
| RRIRPRPPRLPRPRPRPCIMPRP | -1.1 |
| RRIRPRPPRLPRPRPRPCKCPRP | -0.275 |
| RRIRPRPPRLPRPRPRPCLHPRP | -0.248 |
| RRIRPRPPRLPRPRPRPCLNPRP | -0.35 |
| RRIRPRPPRLPRPRPRPCNDPRP | -0.456 |
| RRIRPRPPRLPRPRPRPCNIPRP | -0.554 |
| RRIRPRPPRLPRPRPRPCNMPRP | 0.0288 |
| RRIRPRPPRLPRPRPRPCPFPRP | -0.371 |
| RRIRPRPPRLPRPRPRPCPVPRP | -0.0845 |
| RRIRPRPPRLPRPRPRPCRRPRP | 0.117 |
| RRIRPRPPRLPRPRPRPCSKPRP | 0.0051 |
| RRIRPRPPRLPRPRPRPCTFPRP | -0.00278 |
| RRIRPRPPRLPRPRPRPCVDPRP | -0.149 |
| RRIRPRPPRLPRPRPRPCWLPRP | -0.018 |
| RRIRPRPPRLPRPRPRPCYHPRP | -0.428 |
| RRIRPRPPRLPRPRPRPDAKPRP | 0.201 |
| RRIRPRPPRLPRPRPRPDCRPRP | -0.0347 |
| RRIRPRPPRLPRPRPRPDDEPRP | 0.331 |

| Sequence | shrunken log2 fold change |
| --- | --- |
| RRIRPRPPRLPRPRPRPDFRPRP | -0.184 |
| RRIRPRPPRLPRPRPRPDHYPRP | -0.203 |
| RRIRPRPPRLPRPRPRPDIAPRP | -0.0378 |
| RRIRPRPPRLPRPRPRPDLEPRP | 0.063 |
| RRIRPRPPRLPRPRPRPDLKPRP | -0.0801 |
| RRIRPRPPRLPRPRPRPDNHPRP | -0.521 |
| RRIRPRPPRLPRPRPRPDPAPRP | 0.326 |
| RRIRPRPPRLPRPRPRPDPIPRP | 0.0782 |
| RRIRPRPPRLPRPRPRPDPKPRP | 0.367 |
| RRIRPRPPRLPRPRPRPDPMPRP | 0.4 |
| RRIRPRPPRLPRPRPRPDQKPRP | -0.0552 |
| RRIRPRPPRLPRPRPRPDSAPRP | -0.18 |
| RRIRPRPPRLPRPRPRPDSFPRP | -0.0889 |
| RRIRPRPPRLPRPRPRPDSLPRP | -0.257 |
| RRIRPRPPRLPRPRPRPDSPPRP | 0.0152 |
| RRIRPRPPRLPRPRPRPDTIPRP | -0.247 |
| RRIRPRPPRLPRPRPRPDTNPRP | -0.239 |
| RRIRPRPPRLPRPRPRPDVMPRP | 0.16 |
| RRIRPRPPRLPRPRPRPDWCPRP | -0.179 |
| RRIRPRPPRLPRPRPRPDWPPRP | 0.524 |
| RRIRPRPPRLPRPRPRPDYFPRP | -0.503 |
| RRIRPRPPRLPRPRPRPDYRPRP | -0.321 |
| RRIRPRPPRLPRPRPRPDYTPRP | -0.957 |
| RRIRPRPPRLPRPRPRPEAPPRP | 0.53 |
| RRIRPRPPRLPRPRPRPECHPRP | -0.0419 |

| Sequence | shrunken log2 fold change |
| --- | --- |
| RRIRPRPPRLPRPRPRPECIPRP | -0.0733 |
| RRIRPRPPRLPRPRPRPEDGPRP | 0.0827 |
| RRIRPRPPRLPRPRPRPEFEPRP | -0.0475 |
| RRIRPRPPRLPRPRPRPEFMPRP | 0.0793 |
| RRIRPRPPRLPRPRPRPEGSPRP | 0.0654 |
| RRIRPRPPRLPRPRPRPEGVPRP | 0.103 |
| RRIRPRPPRLPRPRPRPEGYPRP | 0.128 |
| RRIRPRPPRLPRPRPRPEIMPRP | -0.0268 |
| RRIRPRPPRLPRPRPRPEIRPRP | 0.0106 |
| RRIRPRPPRLPRPRPRPEIWPRP | 0.374 |
| RRIRPRPPRLPRPRPRPEKKPRP | -0.044 |
| RRIRPRPPRLPRPRPRPEKVPRP | -0.127 |
| RRIRPRPPRLPRPRPRPELCPRP | 0.277 |
| RRIRPRPPRLPRPRPRPELWPRP | 0.889 |
| RRIRPRPPRLPRPRPRPEMHPRP | 0.395 |
| RRIRPRPPRLPRPRPRPEMYPRP | -0.269 |
| RRIRPRPPRLPRPRPRPENRPRP | 0.0972 |
| RRIRPRPPRLPRPRPRPEPDPRP | 0.537 |
| RRIRPRPPRLPRPRPRPEQIPRP | 0.0118 |
| RRIRPRPPRLPRPRPRPERCPRP | 0.271 |
| RRIRPRPPRLPRPRPRPERRPRP | 0.158 |
| RRIRPRPPRLPRPRPRPESCPRP | 0.239 |
| RRIRPRPPRLPRPRPRPESKPRP | 0.224 |
| RRIRPRPPRLPRPRPRPETAPRP | 0.396 |
| RRIRPRPPRLPRPRPRPEVRPRP | -0.0106 |

| Sequence | shrunken log2 fold change |
| --- | --- |
| RRIRPRPPRLPRPRPRPEVVPRP | 0.0581 |
| RRIRPRPPRLPRPRPRPEWQPRP | 0.137 |
| RRIRPRPPRLPRPRPRPEYIPRP | -0.0411 |
| RRIRPRPPRLPRPRPRPFCVPRP | 0.156 |
| RRIRPRPPRLPRPRPRPFCYPRP | -0.26 |
| RRIRPRPPRLPRPRPRPFDNPRP | -0.299 |
| RRIRPRPPRLPRPRPRPFDQPRP | -0.295 |
| RRIRPRPPRLPRPRPRPFEGPRP | -0.0632 |
| RRIRPRPPRLPRPRPRPFFTPRP | -0.117 |
| RRIRPRPPRLPRPRPRPFFWPRP | 0.559 |
| RRIRPRPPRLPRPRPRPFICPRP | -0.276 |
| RRIRPRPPRLPRPRPRPFQLPRP | -0.0657 |
| RRIRPRPPRLPRPRPRPFQQPRP | -0.000989 |
| RRIRPRPPRLPRPRPRPFSEPRP | -0.436 |
| RRIRPRPPRLPRPRPRPFSPPRP | -0.266 |
| RRIRPRPPRLPRPRPRPFSQPRP | -0.231 |
| RRIRPRPPRLPRPRPRPFVYPRP | -0.706 |
| RRIRPRPPRLPRPRPRPGAHPRP | 0.355 |
| RRIRPRPPRLPRPRPRPGARPRP | 1.19 |
| RRIRPRPPRLPRPRPRPGAVPRP | 0.379 |
| RRIRPRPPRLPRPRPRPGDYPRP | -0.0215 |
| RRIRPRPPRLPRPRPRPGEAPRP | 0.426 |
| RRIRPRPPRLPRPRPRPGEHPRP | -0.133 |
| RRIRPRPPRLPRPRPRPGERPRP | 0.1 |
| RRIRPRPPRLPRPRPRPGFMPRP | 0.048 |

| Sequence | shrunken log2 fold change |
| --- | --- |
| RRIRPRPPRLPRPRPRPGFSPRP | -0.0307 |
| RRIRPRPPRLPRPRPRPGGIPRP | 0.114 |
| RRIRPRPPRLPRPRPRPGGPPRP | 0.41 |
| RRIRPRPPRLPRPRPRPGHIPRP | -0.196 |
| RRIRPRPPRLPRPRPRPGHTPRP | 0.179 |
| RRIRPRPPRLPRPRPRPGIPPRP | -0.157 |
| RRIRPRPPRLPRPRPRPGLLPRP | 0.217 |
| RRIRPRPPRLPRPRPRPGMEPRP | 0.367 |
| RRIRPRPPRLPRPRPRPGMVPRP | 0.268 |
| RRIRPRPPRLPRPRPRPGMWPRP | 0.303 |
| RRIRPRPPRLPRPRPRPGNFPRP | -0.25 |
| RRIRPRPPRLPRPRPRPGNKPRP | -0.0476 |
| RRIRPRPPRLPRPRPRPGNVPRP | -0.344 |
| RRIRPRPPRLPRPRPRPGPGPRP | 0.621 |
| RRIRPRPPRLPRPRPRPGQGPRP | 0.201 |
| RRIRPRPPRLPRPRPRPGQTPRP | -0.00112 |
| RRIRPRPPRLPRPRPRPGSQPRP | 0.127 |
| RRIRPRPPRLPRPRPRPGVDPRP | 0.0426 |
| RRIRPRPPRLPRPRPRPGWFPRP | 0.238 |
| RRIRPRPPRLPRPRPRPGWNPRP | -0.055 |
| RRIRPRPPRLPRPRPRPGYKPRP | -0.141 |
| RRIRPRPPRLPRPRPRPHAFPRP | 0.0176 |
| RRIRPRPPRLPRPRPRPHAQPRP | -0.119 |
| RRIRPRPPRLPRPRPRPHCCPRP | -0.181 |
| RRIRPRPPRLPRPRPRPHCEPRP | 0.308 |

| Sequence | shrunken log2 fold change |
| --- | --- |
| RRIRPRPPRLPRPRPRPHCWPRP | 0.151 |
| RRIRPRPPRLPRPRPRPHCYPRP | -0.2 |
| RRIRPRPPRLPRPRPRPHDGPRP | -0.0292 |
| RRIRPRPPRLPRPRPRPHDTPRP | -0.272 |
| RRIRPRPPRLPRPRPRPHFAPRP | 0.284 |
| RRIRPRPPRLPRPRPRPHKIPRP | -0.193 |
| RRIRPRPPRLPRPRPRPHLCPRP | 0.0476 |
| RRIRPRPPRLPRPRPRPHLIPRP | -0.287 |
| RRIRPRPPRLPRPRPRPHLQPRP | 0.152 |
| RRIRPRPPRLPRPRPRPHMVPRP | -0.0201 |
| RRIRPRPPRLPRPRPRPHMYPRP | -0.316 |
| RRIRPRPPRLPRPRPRPHNHPRP | -0.609 |
| RRIRPRPPRLPRPRPRPHNKPRP | -0.508 |
| RRIRPRPPRLPRPRPRPHQQPRP | -0.14 |
| RRIRPRPPRLPRPRPRPHRIPRP | -0.414 |
| RRIRPRPPRLPRPRPRPHTNPRP | 0.401 |
| RRIRPRPPRLPRPRPRPHVAPRP | 0.218 |
| RRIRPRPPRLPRPRPRPHWIPRP | -0.212 |
| RRIRPRPPRLPRPRPRPIAGPRP | 0.0445 |
| RRIRPRPPRLPRPRPRPIANPRP | -0.12 |
| RRIRPRPPRLPRPRPRPIAQPRP | 0.487 |
| RRIRPRPPRLPRPRPRPIAVPRP | -0.0448 |
| RRIRPRPPRLPRPRPRPICDPRP | -0.0726 |
| RRIRPRPPRLPRPRPRPICRPRP | -0.276 |
| RRIRPRPPRLPRPRPRPIDVPRP | -0.148 |
